Results as given in patent US20240368302A1 (NANOMAB TECHNOLOGY, published 2024).

T1: mouse TROP2-Fc antigen protein (mouse, UniProt Q8BGV3 25-270, limits assumed)
T1 construct: not shown: Fc
T1 sequence (looked up): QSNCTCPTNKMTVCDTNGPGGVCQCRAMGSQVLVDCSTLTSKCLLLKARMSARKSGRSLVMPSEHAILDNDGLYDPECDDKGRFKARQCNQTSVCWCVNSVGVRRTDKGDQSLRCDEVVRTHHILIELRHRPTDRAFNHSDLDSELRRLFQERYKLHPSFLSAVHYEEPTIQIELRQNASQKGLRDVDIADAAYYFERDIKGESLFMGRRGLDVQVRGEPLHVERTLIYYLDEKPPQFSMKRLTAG

T2: human TROP2-Fc protein antigen (human, UniProt P09758 27-274)
T2 construct: extracellular domain; also called CRD + TY-1 + CPD; not shown: IgG Fc of the pFUSE-IgG plasmid
T2 sequence (looked up): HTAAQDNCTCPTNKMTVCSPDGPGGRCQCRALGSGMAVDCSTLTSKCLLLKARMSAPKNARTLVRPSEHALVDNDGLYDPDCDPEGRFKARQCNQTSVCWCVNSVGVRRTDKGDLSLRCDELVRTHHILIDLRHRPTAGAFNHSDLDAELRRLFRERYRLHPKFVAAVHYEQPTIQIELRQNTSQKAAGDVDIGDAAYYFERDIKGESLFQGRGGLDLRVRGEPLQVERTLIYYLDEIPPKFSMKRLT

T3: rhesus monkey TROP2-Fc antigen protein (rhesus monkey, UniProt A0A5F8AGB8 27-274)
T3 construct: not shown: Fc
T3 sequence: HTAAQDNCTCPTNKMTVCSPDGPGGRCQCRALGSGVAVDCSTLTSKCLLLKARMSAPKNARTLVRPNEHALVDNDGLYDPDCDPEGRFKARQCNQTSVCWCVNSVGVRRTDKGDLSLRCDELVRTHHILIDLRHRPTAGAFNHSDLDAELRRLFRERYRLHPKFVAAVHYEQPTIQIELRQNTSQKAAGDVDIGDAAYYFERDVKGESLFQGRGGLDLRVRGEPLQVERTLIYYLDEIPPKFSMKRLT

T4: Fc antigen protein of human TROP2 domains TY-1 + CPD (human, UniProt P09758 70-274, limits assumed)
T4 construct: domain: TY-1 + CPD; not shown: Fc
T4 sequence (looked up): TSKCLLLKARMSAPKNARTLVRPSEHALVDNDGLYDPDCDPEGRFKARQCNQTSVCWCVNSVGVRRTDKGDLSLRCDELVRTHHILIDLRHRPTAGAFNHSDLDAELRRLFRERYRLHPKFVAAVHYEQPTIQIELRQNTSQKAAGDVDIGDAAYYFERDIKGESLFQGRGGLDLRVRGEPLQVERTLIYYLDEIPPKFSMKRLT

T5: Fc antigen protein of human TROP2 domain CPD (human, UniProt P09758 146-274, limits assumed)
T5 construct: domain: CPD; not shown: Fc
T5 sequence (looked up): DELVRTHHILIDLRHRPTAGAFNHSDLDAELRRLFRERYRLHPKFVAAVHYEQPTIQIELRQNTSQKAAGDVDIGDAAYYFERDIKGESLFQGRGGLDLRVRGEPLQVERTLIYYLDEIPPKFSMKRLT


How the values were obtained:
[1] = molecular target: T1, mouse TROP2-Fc antigen protein; test: ELISA, plate coated with mouse TROP2-Fc
[2] = molecular target: T2, human TROP2-Fc protein antigen; test: ELISA, coated human TROP2-Fc, Kd calculated from absorbance
[3] = molecular target: T2, human TROP2-Fc protein antigen; test: ELISA, coated Fc protein of human TROP2 CRD + TY-1 + CPD, Kd calculated from absorbance
Description: (§1) The ELISA plates were coated with Fc antigen proteins of different human TROP2 domains overnight at 4° C. The plates were washed for 4 times with PBS-T the next day, added with 1% BSA, and blocked at room temperature for 2 hours. The plates were washed for 4 times with PBS-T, added with the anti-TROP2 single domain antibodies diluted in gradient, and standing at 37° C. for 1 hour. The plates were washed for 4 times with PBS-T, added with mouse anti-His-HRP antibody, and standing at 37° C. for 1 hour. The plates were washed for 4 times with PBS-T, added with TMB soluble substrate, and standing at room temperature for 10 minutes. […] The anti-TROP2 single domain antibodies of the present invention bind to different TROP2 domains.

[4] = molecular target: T2, human TROP2-Fc protein antigen; test: SPR (Biacore 8K), human TROP2-Fc on CM-5 chip, VHH in flow
Description: The fixed phase human TROP2-Fc antigen proteins were fixed on the surface of CM-5 sensing chip using carboxyl amino reaction. The anti-TROP2 single domain antibodies were diluted with HBS buffer to different concentrations, and the anti-TROP2 single domain antibodies were added at a flow rate of 30 μl/min, binding for 90 seconds, dissociating for 600 seconds, and the binding process between the anti-TROP2 single domain antibody and the antigen was observed. After rinsing with 10 mM glycine solution for chip regeneration, the next anti TROP2 single domain antibody assay was proceeded.

[5] = molecular target: T3, rhesus monkey TROP2-Fc antigen protein; test: ELISA, coated rhesus monkey TROP2-Fc, Kd calculated from absorbance
Description: The ELISA plates were coated with TROP2-Fc antigen proteins from human, mouse, and rhesus monkey overnight at 4° C. The plates were washed for 4 times with PBS-T the next day, added with 1% BSA, and blocked at room temperature for 2 hours. The plates were washed for 4 times with PBS-T, added with the anti-TROP2 single domain antibodies diluted in gradient, and standing at 37° C. for 1 hour. The plates were washed for 4 times with PBS-T, added with mouse anti-His-HRP antibody, and standing at 37° C. for 1 hour. The plates were washed for 4 times with PBS-T, added with TMB soluble substrate, and standing at room temperature for 10 minutes.

[6] = molecular target: T4, Fc antigen protein of human TROP2 …; test: ELISA, coated Fc protein of human TROP2 TY-1 + CPD, Kd calculated from absorbance
Description: as §1

[7] = molecular target: T5, Fc antigen protein of human TROP2 …; test: ELISA, coated Fc protein of human TROP2 CPD, Kd calculated from absorbance
Description: as §1

| Binder | binding result [1] | Kd [2] [nM] | Kd [3] [nM] | Kd [4] [nM] | koff [4] [s⁻¹] | kon [4] [M⁻¹ s⁻¹] | Kd [5] [nM] | Kd [6] [nM] | Kd [7] [nM] |
| --- | --- | --- | --- | --- | --- | --- | --- | --- | --- |
| MY1530-1-26 (VHH, Expressed in E. coli WK6 from vector pMECS, purified on a nickel column; also called MY1530-1-26 VHH; anti-TROP2 single domain antibody) VHH: QVQLQESGGGSVQAGGSLRLSCVVSGYTTTRYSMAWFRQAPGKEREGVAGIDTDVLTTYKPSVEGRFTISRDSAKRTLYLQMNSLKPEDTAMYYCATGTGNFLALDPVWYNTWGQGTQVTVSS | no binding | 4.86 | 4.86 | 1.89 | 0.00304 | 1.61e+06 | 29.4 | – | – |
| MY1530-5-17 (VHH, Expressed in E. coli WK6 from vector pMECS, purified on a nickel column; also called MY1530-5-17 VHH; anti-TROP2 single domain antibody) VHH: QVQLQESGGGSVQPGGSLRLSCVVSGYTVSSVCMAWFRQAPGMERELVAGFYHSGGTYYGDSVKGRFTASQDNAKNTLYLQMNSLKPEDTATYYCARARYPSSACGTSPSNYNIWGQGTQVTVSS | no binding | 1.39 | 1.39 | 0.27 | 0.00011 | 405000 | 1.78 | 0.53 | 0.53 |
| MY1530-4-22 (VHH, Expressed in E. coli WK6 from vector pMECS, purified on a nickel column; also called MY1530-4-22 VHH; anti-TROP2 single domain antibody) VHH: QVQLQESGGGSVQAGGSLKLSCVVSGYTVSSVCMAWFRQAPGMERELVAGFYHSGGTYYGDSVKGRFTASQDNAKNTLYLQMNSLKPEDTATYYCARARYPSSACGTSPSNYNIWGQGTQVTVSS | no binding | 1.29 | 1.29 | 0.73 | 0.000187 | 257000 | 1.67 | 0.53 | 1.02 |
| MY1530-2-53 (VHH, Expressed in E. coli WK6 from vector pMECS, purified on a nickel column; also called MY1530-2-53 VHH; anti-TROP2 single domain antibody) VHH: QVQLQESGGGSVQAGGSLRLSCAVSGLTSSTTCMGWFRQAPGKEREGVAVIRSSGETTAADSVKGRFTISRDNAKNTLSLQMTSLKPEDTAMYYCAAAWPYSGCLLPLSSGDFTYWGQGTQVTVSS | no binding | 4.23 | 4.23 | 9.83 | 0.00443 | 451000 | 28.1 | – | – |
| MY1530-1-20 (VHH, Expressed in E. coli WK6 from vector pMECS, purified on a nickel column; also called MY1530-1-20 VHH; anti-TROP2 single domain antibody) VHH: QVQLQESGGGSVLAGGSLRLSCTVSGSFVSSRSMAWFRQTPGKEREGVAAISQYGDPKYAGSVKGRFTMSRDNAKNTLLLQMNSLKPEDTAIYYCAAGEAWELATLSRSDYIYWGQGTQVTVSS | no binding | 1.13 | 1.13 | 0.35 | 0.000179 | 509000 | 2.33 | – | – |

Next, values leading:

| binding result [1] | Kd [2] [nM] | Kd [3] [nM] | Kd [4] [nM] | koff [4] [s⁻¹] | kon [4] [M⁻¹ s⁻¹] | Kd [5] [nM] | Kd [6] [nM] | Kd [7] [nM] | Binder |
| --- | --- | --- | --- | --- | --- | --- | --- | --- | --- |
| no binding | 1.51 | 1.51 | 0.21 | 0.000227 | 1.09e+06 | 4.47 | 2.14 | – | MY1530-6-1 (VHH, Expressed in E. coli WK6 from vector pMECS, purified on a nickel column; also called MY1530-6-1 VHH; anti-TROP2 single domain antibody) VHH: QVQLQESGGGSVQAGGSLRLSCAASGFPYSSYSMGWFRQAPGKEREGVAAIYTGGGSTYYAGSVKGRFTISQEHATNTLYLQMNSLKPEDTAMYYCAANMVDNGVISGIQALGVRYYNYWGQGTQVTVSS |
| no binding | 1.2 | 1.2 | 4.89 | 0.000717 | 147000 | 1.38 | – | – | MY1530-4-28 (VHH, Expressed in E. coli WK6 from vector pMECS, purified on a nickel column; also called MY1530-4-28 VHH; anti-TROP2 single domain antibody) VHH: QVQLQESGGGSVQAGGSLRLSCAASGFSVSTTWMHWVRQAPGKGLEWVSRIAINDHTFYAESVKGRFTMSTDNAKNTVYLQMTSLKPEDTAVYYCSPYSDYRIRGQGTQVTVSS |
| no binding | 1.28 | 1.28 | 0.2 | 8.99e-05 | 449000 | 1.73 | 0.53 | 0.53 | MY1530-5-54 (VHH, Expressed in E. coli WK6 from vector pMECS, purified on a nickel column; also called MY1530-5-54 VHH; anti-TROP2 single domain antibody) VHH: QVQLQESGGGSVQPGGSLRLSCVASGYTASSVCMAWFRQAPGKERELVAGYYHSGGTYYGDSVKGRFTASQDNAKNTLYLQMNSLKPEDTATYYCARARYPSSACGTSPSNYNIWGQGTQVTVSS |
